Measured values from patent publication US20190241662A1 (ADAGENE, published 2019).
Changes are numbered by the printed parent chain.

Legend:
[1] = target: T1, full-length mouse CTLA4 expressed on HEK293F cells (mouse, UniProt P09793 36-223); test: flow cytometry, transfected HEK293F cells [Cont.]
T1 construct: whole, on cells
Experimental: (§1) The affinities of the antibodies were also assessed against human and mouse CTLA4 transiently expressed on the surface of HEK293F cells (FIG. 2). Briefly, HEK293F cells were transfected with a plasmid expressing full-length human, monkey or mouse CTLA4 from a bicistronic IRES vector also encoding EGFP, and EGFP expression was used to identify the transfected cells. After 48 hours, the mammalian cell suspension (2×10⁵/well) was transferred to an Eppendorf tube, centrifuged, the supernatant was discarded, the cells were resuspended with 1 mL PBSA (to a density is 4×10⁶ cells/mL), and added to a 96 well plate. […] The cells were then washed once prior to analysis by flow cytometry (Beckman® CytoFlex).

[2] = target: T2, full-length human CTLA4 expressed on cells (human, UniProt P16410 36-223); test: flow cytometry blocking: HEK293F cells with human CTLA4, 100 nM antibody, then 100 nM CD86-Fc-Bio (blocked ligand); PBSA panel: Mean 10678, 12.2%
T2 construct: whole, on cells; also called HEK293F/hCTLA-4 cells; HEK293F/hCTLA4 cells
T2 sequence (looked up): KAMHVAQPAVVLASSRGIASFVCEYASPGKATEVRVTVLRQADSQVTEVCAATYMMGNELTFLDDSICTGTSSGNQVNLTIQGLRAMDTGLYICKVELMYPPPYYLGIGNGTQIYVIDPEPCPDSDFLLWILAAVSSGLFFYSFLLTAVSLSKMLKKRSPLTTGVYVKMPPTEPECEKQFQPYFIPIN
Experimental: (§2) Antibodies were also tested for their ability to block binding of CTLA4 to its cognate ligands CD80 and CD86 by flow cytometry. The plasmid encoding full-length human CTLA4 was transiently expressed in HEK293F cells. Cells were washed with staining buffer (PBSA buffer including 1.76 mM KH₂PO₄, 10.14 mM Na₂HPO₄.12H₂O, 2.68 mM KCl, 136.89 mM NaCl and 1% BSA), and resuspended in staining buffer containing 100 nM test antibodies. […] Cells were washed once, and analyzed by CytoFlex flow cytometry.

[3] = target: T2, full-length human CTLA4 expressed on …; test: flow cytometry blocking: HEK293F cells with human CTLA4, 100 nM antibody, then 100 nM CD80-Fc-Bio (blocked ligand); PBSA panel: Mean 157692, 26.3%
Experimental: as §2

[4] = target: T1, full-length mouse CTLA4 expressed on …; test: flow cytometry, transfected HEK293F cells, antibody concentration not printed [Cont.]
Experimental: as §1

[5] = target: T2, full-length human CTLA4 expressed on …; test: as above
Experimental: as §1

[6] = target: T2, full-length human CTLA4 expressed on …; test: flow cytometry, transfected HEK293F cells, antibody concentration not given
Experimental: as §1

[7] = target: T3, recombinant human CTLA4 fused with human Fc and His tag (human, UniProt P16410 36-162, limits assumed); test: competition ELISA: plate-bound human CTLA4-Fc-His, biotinylated CD80 as blocked ligand
T3 construct: Coated in the CD80 ELISA, biotinylated and in solution in the CD86 ELISA; also called biotinylated human CTLA4 fused with human FC and His tag
T3 sequence (looked up): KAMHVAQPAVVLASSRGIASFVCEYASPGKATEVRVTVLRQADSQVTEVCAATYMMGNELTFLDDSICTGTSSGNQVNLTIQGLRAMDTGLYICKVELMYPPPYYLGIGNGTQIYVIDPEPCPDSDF
Experimental: Antibodies were then tested for their ability to block binding of CTLA4 to its cognate ligands CD80 and CD86 by ELISA. […] Plates were blocked with PBS supplemented with 2% (w/v) skim milk at 37° C. for 1 hour. […] Plates were washed four times, and 100 μL HRP-neutravidin (1:1000) was added to each well and incubated at 37° C. for 1 hour. Plates were washed as previously described, and 50 μL TMB substrate solution was added and incubated at room temperature for 5 minutes before the reaction was stopped by 50 μL sulfate acid (2M).

[8] = target: T4, recombinant human CTLA4-Fc (human, UniProt P16410 36-162); test: ELISA, coated human CTLA4-Fc (as in Example 8)
T4 construct: also called human CTLA4 fused with human FC fragment; CTLA4-Fc (Sino Biological, 11159-H03H)
T4 sequence (looked up): T3 sequence (looked up)
Experimental: (§3) Plates were blocked with PBS supplemented with 3% non-fat milk at 37° C. for 1 hour. After washing, 100 μL of 3-fold serial dilutions of antibodies were added to each well. After incubation at 37° C. for 1 hour, plates were washed four times, and 100 μL HRP conjugated anti-human IgG (Fab specific) (1:6000 dilution) was added to each well. Plates were incubated at 37° C. for 1 hour, washed four times, and then 50 μL TMB substrate solution was added to each well, and the plate was incubated at room temperature. […] The EC₅₀ was evaluated by fitting the ELISA data using the asymmetrical sigmoidal (five-parameter logistic equation) model of GraphPad Prism 6 software.

[9] = target: T4, recombinant human CTLA4-Fc; test: ELISA, coated human CTLA4-Fc (as in Example 8); remark: listed apart in the source
Experimental: as §3

[10] = target: T4, recombinant human CTLA4-Fc; test: ELISA; EC50 divided by the EC50 of TY21580
Experimental: as §3

[11] = target: T4, recombinant human CTLA4-Fc; test: ELISA; EC50 divided by the EC50 of TY21580; remark: listed apart in the source
Experimental: as §3

[12] = target: T4, recombinant human CTLA4-Fc; test: ELISA on plate-coated recombinant human CTLA4-Fc, detection with HRP anti-human IgG (Fab specific)
Experimental: as §3

[13] = target: T4, recombinant human CTLA4-Fc; test: ELISA, coated human CTLA4-Fc (as in Example 8); remark: listed apart in the source
Experimental: as §3

[14] = target: T4, recombinant human CTLA4-Fc; test: ELISA, coated human CTLA4-Fc; EC50 divided by the EC50 of TY21580
Experimental: as §3
(§4) The purified activatable antibodies were treated with the proteases which recognize the cleavage sequences, and were then tested to determine whether removal of the masking peptide restored their activity.

[15] = target: T4, recombinant human CTLA4-Fc; test: ELISA; EC50 divided by the EC50 of TY21580; remark: listed apart in the source
Experimental: as §3

[16] = target: T4, recombinant human CTLA4-Fc; test: ELISA, coated human CTLA4-Fc
Experimental: as §3, §4

[17] = target: T4, recombinant human CTLA4-Fc; test: BLI Octet, CTLA4-Fc on AHC sensor, Fab 10 ug/mL
Experimental: Proprietary phagemid libraries (see PCT application number PCT/CN2017/098333, incorporated herein by reference in its entirety; see also PCT application number PCT/CN2017/098299, incorporated herein by reference in its entirety) were employed to pan against human CTLA4 antigens. A total of 3-5 rounds of panning were conducted. After the final round of panning, single-colony supernatant ELISA was performed to identify the primary hits that specifically recognized human CTLA4 (see e.g., UniProt Accession Number P16410). The primary hits were defined as those whose ELISA signals were at least twice that of background. The hits were then sequenced, and the unique clones were expressed in E. coli and purified. Their affinities against human CTLA4 were measured by ForteBio Octet RED96 Systems. […] The acquired ForteBio data were processed with Data Acquisition software 7.1, and kinetic data were fitted to a 1:1 Langmuir binding model.

[18] = target: mouse CTLA4 fused with human FC fragment (mouse, UniProt P09793 36-162, limits assumed); test: ELISA, captured Fab, CTLA4-Fc titrated

B1: TY21589 (antibody, V domains shown)
VH: EVQLVESGGGLVQPGGSLRLSCAASGFTFSDYWIHWVRQAPGKGLEWIGWISPSGGGTKYAQKFQGRVTISRDNSKNTLYLQLNSLRAEDTAVYYCARGAYEFDYWGQGTLVTVSS
VL: DIQLTQSPSSLSASVGDRVTITCRASQSVSSRFLAWYQQKPGKAPKLLIYDASNRATGIPSRFSGSGSGTDFTLTISSLQPEDFATYYCQQSYPTPLTFGQGTKVEIK
notes: human IgG1 (hIgG1) from Fab hit B15740
With B1 the binding result [1] was “no binding (tested: not printed on the sheet)”, the “% of cells in upper right quadrant (CD86-positive) in the presence of the antibody” value [2] was 0.55% and the “Mean of the CD86 binding signal in the presence of the antibody” value [2] was 6660. For the same binder, the “% of cells in upper right quadrant (CD80-positive) in the presence of the antibody” value [3] was 27.5%, the “Mean of the CD80 binding signal in the presence of the antibody” value [3] was 110000 and the “% of cells in upper right quadrant (Q2)” value [4] was 1.36%. The “% of cells in upper right quadrant (Q2)” value [5] was 29.7%.

B2: TY21587 (antibody, V domains shown)
VH: EVQLVESGGGLVQPGGSLRLSCAASGFTFSDYGIHWVRQAPGKGLEWIGEIYHSGSTYYSPSLKSRVTISRDNSKNTLYLQLNSLRAEDTAVYYCARDVAPGSSGYYDGFDFWGQGTLVTVSS
VL: DIQLTQSPSSLSASVGDRVTITCRASQGIGSSLAWYQQKPGKAPKLLIYDASNRATGIPSRFSGSGSGTDFTLTISSLQPEDFATYYCQQYDQWPPWTFGQGTKVEIK
notes: human IgG1 (hIgG1) from Fab hit B15722
With B2 the “% of cells in upper right quadrant (Q2)” value [6] was 23.6%, the “% of cells in upper right quadrant (CD86-positive) in the presence of the antibody” value [2] was 6.59% and the “Mean of the CD86 binding signal in the presence of the antibody” value [2] was 5710. The “% of cells in upper right quadrant (CD80-positive) in the presence of the antibody” value [3] was 25.8%, the “Mean of the CD80 binding signal in the presence of the antibody” value [3] was 85700 and the “IC50 (read off the curve)” value [7] was roughly 30 nM.

B3: TY22402 (antibody, IgG1, V domains shown)
VH: EVQLVESGGGLVQPGGSLRLSCAASGYSISSGYHWSWIRQAPGKGLEWLARIDWDDDKYYSTSLKSRLTISRDNSKNTLYLQLNSLRAEDTAVYYCARSYVYFDYWGQGTLVTVSS
VL: EVGSYIVHHSDCDAFYPYCDSSGRSAGGGGSPLGLAGSGGSDIQLTQSPSSLSASVGDRVTITCRASQSVRGRFLAWYQQKPGKAPKLLIYDASNRATGIPSRFSGSGSGTDFTLTISSLQPEDFATYYCQQSSSWPPTFGQGTKVEIKR
notes: IgG1; peptide fused to the N-terminus of the light chain of TY21580
For B3, the EC50 [8] was 116 nM, the EC50 [9] was 54 nM and the masking efficiency [10] was 554. It also gave a masking efficiency [11] of 243.

B4: TY22563 (antibody, IgG1, V domains shown)
VH: B3 VH
VL: B3 VL with I6Y, V7S, H8A, H9Y, S10P, D11A, A14S, F15H, D20Q
notes: IgG1
With B4 the “EC50 (read off the curve)” value [12] was roughly 60 nM.

B5: TY22566 (antibody, IgG1, V domains shown)
VH: B3 VH
VL: EVGSYPNPASDCVPYYYACAYSGRSAGGGGSPLGLAGSGGSDIQLTQSPSSLSASVGDRVTITCRASQSVRGRFLAWYQQKPGKAPKLLIYDASNRATGIPSRFSGSGSGTDFTLTISSLQPEDFATYYCQQSSSWPPTFGQGTKVEIKR
notes: IgG1
In the case of B5, the “EC50 (read off the curve)” value [12] is reported as roughly 200 nM.

B6: TY22404 (antibody, IgG1, V domains shown)
VH: B3 VH
VL: B5 VL with A9S
notes: as for B3
Binder B6 has an EC50 [8] of 122 nM, an EC50 [13] of 117 nM and a masking efficiency [14] of 216. The EC50 [9] was 68.4 nM, the masking efficiency [15] was 469 and the masking efficiency [10] was 572. It also gave an EC50 [16] of 96.8 nM, a LogEC50 [16] of -7.01 and a masking efficiency [11] of 308.

B7: B15740 (Fab, V domains shown)
VH: B1 VH
VL: DIQLTQSPSSLSASVGDRVTITCRASQSVSSRFLAWYQQKPGKAPKLLIYDASNRATGIPSRFSGSGSGTDFTLTISSLQPEDFATYYCQQSYPTPLTFGQGTKVEIKR
notes: Fab from E. coli; also called Fab hit of TY21589
With B7 the Kd [17] was 14.5 nM, the koff [17] was 0.00258 s⁻¹ and the kon [17] was 178000 M⁻¹ s⁻¹. B7: no binding [18].
